Consider two molecules from patent publication US20260193317A1, “COMBINATION THERAPY WITH ACTRIIB RECEPTOR VARIANTS AND GLP-1 AGONISTS” (35PHARMA Inc., priority 2023, published 2026).

Read-outs that look alike come from different tables or passages of the source.

One assay addresses T1, activin A (Homo sapiens, UniProt P08476).
T1 sequence (P08476 311-426): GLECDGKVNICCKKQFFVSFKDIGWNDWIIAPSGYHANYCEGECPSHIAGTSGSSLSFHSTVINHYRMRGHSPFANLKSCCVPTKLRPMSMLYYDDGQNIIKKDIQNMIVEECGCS
Kind of assay: Small-scale activin A ELISA with CHO supernatants. Particulars: 1 μg/mL protein, 30 ng/mL activin A, loss of signal = binding. How it is done:
Small-scale testing of ActRIIB-ECD fusion proteins. Additional investigation of a series of exemplary agents was performed using proteins expressed in CHO cells. Briefly, DNA encoding the ActRIIB-ECD-Fc fusion constructs was transfected in cells seeded in 12-well plates in a final volume of 1 ml. After 7 days, the supernatant was harvested, clarified, and the amount of expressed protein in each well was quantified using standard methods. The potency of each agent for inhibition of activin A, BMP-9 and BMP-10 was determined in three separate assays.
The next day, the plate was washed three times with buffer (Biolegend #421601). […] Expressed proteins in the supernatants described above were diluted to 2 μg/mL in assay diluent (0.5% BSA, 0.05% tween-20 in PBS), mixed 1:1 with recombinant human activin A (R&D #338-AC, 60 ng/mL, diluted in assay diluent). Complexes were immediately added to the 96-well plate in technical duplicates and incubated for 1 h at RT (concentration of expressed protein and activin A on the plate were 1 μg/mL and 30 ng/mL, respectively). […] In this assay, a loss of signal indicates binding of the exemplary agent to activin A, which prevents activin A binding to the anti-activin A antibody on the plate. Results are expressed as a % of the signal obtained with wild-type ActRIIB-Fc (P75).

The test system of assay [1] is follicle-stimulating hormone (FSH). Kind of assay: FSH production in DIO mice. The class given is in vivo. Particulars: 3 weeks of treatment. How it is done: Experiments were performed to assess the effects of P1229 on body composition and metabolism in diet-induced obese (DIO) mice. DIO mice were purchased from Jackson Laboratories (#380050). Briefly, mice were fed a high-fat diet (HFD, 60% kcal from fat) from 6 weeks of age until 22 weeks of age (total of 16 weeks on the HFD). […] After 3 weeks of treatments, some animals were sacrificed and scanned by EchoMRI […] (FIGS. 11A-F), while others were sacrificed for tissue collection and RNA analysis. Animals were maintained on the HFD throughout the acclimatization and treatment periods. The murine version of bimagrumab used for these experiments comprises the heavy chain amino acid sequence of SEQ ID NO: 376 and the light chain sequence of SEQ ID NO: 377.
Follicle-stimulating hormone (FSH) is a known biomarker of in vivo target engagement for activin receptor-based traps (See Attie et al. (2013). Muscle Nerve, 47: 416-423). To further validate in vivo target engagement for exemplary agents, FSH production was evaluated in DIO mice, as described above.

The target of a further assay is GDF-8 (Homo sapiens, UniProt O14793). Kind of assay: TGFβ-reporter HEK293 cell-based assay: GDF-8 neutralization. Particulars: for IC50: read-out: CBA Potency GDF-8; for CBA potency GDF-8, potency fold-change: relative to reference (P1372 = 1). How it is done:
Potency testing by neutralization on cell-based assays. Characterization of the activin A, activin B, GDF-8, and GDF-11 inhibition potency (IC50) of the fusion proteins was performed using a cell-based reporter assay. TGFβ-reporter HEK293 cells were obtained from InvivoGen (San Diego, CA, cat. no. hkb-tgfb) and were maintained following the manufacturer's instructions. Briefly, cells were grown in high-glucose DMEM, containing 10% heat-inactivated FBS, 30 μg/mL blasticidin, 250 μg/mL hygromycin B, and 100 μg/mL zeocin (hereafter, “growth medium”). Once the cells reached 70-80% confluence, they were detached in growth medium by gently tapping on the flask. For all assays, cells were seeded in 96-well plates at a density of 20,000 cells per well in growth medium. Cells were left to attach for 10 minutes at room temperature (RT) prior to being transferred to a 37° C. incubator (5% CO2) overnight. The next day, treatments were prepared by combining the appropriate concentration of agent with activin A, activin B, GDF-8, or GDF-11 for 30 min at RT (shaking at 150 rpm). Treatments were conducted in high-glucose DMEM (serum-free and with no selection agents), and the final concentration of cytokine (ligand) was 0.3 nM. Growth medium was removed from the culture plates, and cells were treated with the appropriate mixes of fusion protein and cytokine. Treatment duration was for 18-22 h at 37° C. (5% CO2). All treatments were performed in technical duplicates and at least one or two independent experiments were conducted for each cytokine. At the end of the treatment period, supernatants were transferred to a new plate, and centrifuged at 300 RPM for 3 min. Forty microlitres of supernatant from each condition was transferred to a new plate, into which 180 μL of Quanti-Blue reagent (InvivoGen, cat. no. rep-qbs) was added. Quanti-Blue reagent was prepared following the manufacturer's instructions. Samples were incubated for 45 min at 37° C. At the end of the incubation, absorbance was read at 650 nm. The data were plotted in GraphPad Prism, which was used to calculate IC50 values as a non-linear regression.

Consider “P1229: hActRIIB L33W, 14 aa linker, IgG1-DL Fc; SEQ ID 211”, for which, in the assay with activin A, the “activin A binding, ELISA signal relative to P75” value was “potent activin A binding”. Besides, in assay [1], the FSH production entry is given as “significant decreases in FSH production”.

B1: P1372: hActRIIB L33W, 14 aa linker, IgG1 YTE-DL Fc; SEQ ID 231 (protein)
chain: ETRECIYYNANWELERTNQSGLERCEGEQDKRWHCYASWRNSSGTIELVKKGCWLDDFNCYDRQECVATEENPQVYFCCCEGNFCNERFTHLPEAGGPEVTYEPPPTGGGGSGGGGSGGGGTHTCPPCPAPELLGGPSVFLFPPKPKDTLYITREPEVTCVVVDVSHEDPEVKFNWYVDGVEVHNAKTKPREEQYNSTYRVVSVLTVLHQDWLNGKEYKCKVSNKALPAPIEKTISKAKGQPREPQVYTLPPSRDELTKNQVSLTCLVKGFYPSDIAVEWESNGQPENNYKTTPPVLDSDGSFFLYSKLTVDKSRWQQGNVFSCSVMHEALHNHYTQKSLSLSPG
Consider B1, for which the “CBA potency GDF-8, fold-change vs reference” value in the assay with GDF-8 (D 0), with GDF-8 (D 7 after storage at 2-8° C.) and with GDF-8 (D 7 after storage at room temperature) was 1 (ref) in each case. Besides, the IC50 with GDF-8 (D 0) is 0.27 nM; in the assay with GDF-8 (D 7, 2-8° C.), 0.22 nM; with GDF-8 (D 7, RT) it was 0.24 nM; in the assay with GDF-8 (D 14, 2-8° C.), 0.35 nM; with GDF-8 (D 14, RT), 0.36 nM; in the assay with GDF-8 (D 28, 2-8° C.) it was 0.45 nM. In addition, the IC50 with GDF-8 (D 28, RT) was 0.44 nM; in the assay with GDF-8 (D 56, 2-8° C.), 0.34 nM; with GDF-8 (D 56, RT) it was 0.36 nM. Further, the “CBA potency GDF-8, potency fold-change” value in the assay with GDF-8 (D 28, storage at 2-8° C.) is on record as 1 (ref) fold; in the assay with GDF-8 (D 28, storage at room temperature), 1 (ref) fold.
